Reference: patent US20240409621A1 (XIAMEN UNIVERSITY, published 2024)

What was measured:
Assay in all cases: cell-based or functional assay
[1] = molecular target: T1, F protein of RSV A2 (on the virus in the neutralization assay) (respiratory syncytial virus, A2 strain, UniProt P03420 26-574)
[2] = molecular target: T1, F protein of RSV A2 (on the virus in …); remark: listed apart in the source
[3] = molecular target: F protein of RSV type B strain 18537 (on the virus in the neutralization assay) (respiratory syncytial virus type B, …, UniProt P13843 26-574)

B1: monoclonal antibody 6B2 (antibody, V domains shown)
VH: EVQLQQSRPELVKPGASVKISCKASGYSFTAYFMNWVKQSHGKSLEWIGRINPYIGDTFYNQKFKGKATLTVDKSSNTAHMELLSLTSEDSAVYYCGRSEYGNYYFDYWGQGTTLTVSQ
VL: ENVLTQSPAIMSASLGEKVTMSCRASSSVNYMYWYQQKSDASPKLWIYYTSNLAPGVPARFSGSGSGNSYSLTISSMEGEDAATYYCQQFTSSPLTFGAGTKLELK
- IC50 of each RSV neutralizing antibody, RSV A2 [1]: 0.0949 mg/L

B2: monoclonal antibody 5B11 (antibody, V domains shown)
VH: QIQLVQSGPELKKPGETVKISCKASGYTFTDYSMHWLKQAPGKGLKWMGWITTETGEPTYADDFKGRFAFSLETSASTAYLQINNLKNEDTGIYFCARYYYGPFYWGQGTLVTVST
VL: DIQMTQSPASLSASVGETVTITCRSSGNIHNFLTWYQQKQGKSPQFLVYNAKTLADGVSSRFSGSGSGTQFSLKINSLQPEDFGIYYCQHFWTTPYTFGGGTKLEIK
- neutralizing ability against RSV A2, relative to 1129 [2]: 50 times
- neutralizing ability against 18537, relative to 1129 [3]: ~10 times
- IC50 of each RSV neutralizing antibody, RSV A2 [1]: 0.0074 mg/L

B3: monoclonal antibody 7G5 (antibody, V domains shown)
VH: QVQLKESGPGLVAPSQSLSITCTVSGFSLSSYGVHWIRQPPGKGLEWLGVIWAGGSTNYNSALMSRLSISEDNSKSQVFLKMNSLQTDDTAVYYCARKGLVWPAMDYWGQGTSVTVSQ
VL: DIQMTQTTSSLSASLGDRVTISCRASQDISHYLNWYQQKPDGTVKLLIYYTSRLHSGVPSRFSGSGSGTDYSLTIYNLEQEDIATYFCQQGNTLPWTFGGGTKLEIK
- IC50 of each RSV neutralizing antibody, RSV A2 [1]: 0.0316 mg/L
